Data taken from patent publication US10596234B2, “Compositions and methods to inhibit viral replication” (priority 2016, dated 2020).

Tests used:
PRDIII promoter = experiment: Dual-luciferase reporter assay (PRDIII, SeV infection); format: cell-based, human; settings: 293T cells, SeV 100 HAU/ml
Description: HEK293T cells, seeded in 24-well plates (˜50% cell density), were transfected with IFN-β, PRDIII (ISRE) or NF-κB reporter plasmid cocktail (50 ng of luciferase reporter plasmid and 5 ng of pRL Renilla luciferase control vector) and expression plasmid (empty plasmid, one or multiple plasmids depending on the experiment) by calcium phosphate precipitation. Cells were infected with SeV (100 HA/ml), HSV-1 for 16 h, transfected with Poly [I:C] for 16 h or directly harvested 30-36 h post transfection. Whole cell lysates were used to determine the activity of firefly luciferase and renilla luciferase by a microplate reader (FLUOstar Omega).

cGAS [1] = experiment: cGAMP reporter assay (THP1-Lucia); format: cell-based, human; settings: THP-1 cells transfected with HT-DNA (HT-DNA alone approximately 60 ng)
Description: THP-1 Cells were transfected with HT-DNA (2 μg/ml) or infected with HSV-1 virus for 6 h. Cell extracts were prepared by heating at 95° C. for 5 min to denature most proteins, and then the precipitated proteins were removed by centrifugation. The supernatant containing cGAMP was delivered to digitonin-permeabilized (2.5 μg/ml for 30 min) THP1-Lucia cells at 37° C. for 30 min. The cells were cultured for another 20 h before Lucia reporter activity was measured according to the manufacturer's instruction (InvivoGen). Pure cGAMP was diluted and used as standard for the assay.

cGAS [2] = experiment: Real-time PCR in THP-1 cells stably expressing UL37, transfected with HT-DNA; format: cell-based, human; settings: THP-1 stable cell lines
Description: THP-1 or L929 cells were infected with HSV-1 (MOI=5) or stimulated with HT-DNA (2 μg/ml) or cGAMP (2 μg/ml) for 6 h unless specifically indicated otherwise. Cells were washed with cold PBS, and total RNA was extracted by using TRIzol Reagent (Invitrogen). RNA was digested with DNase I (New England Biolabs) to remove genomic DNA. One microgram of total RNA was used for reverse transcription with PrimeScript Reverse Transcriptase (Clontech) according to the manufacturer's instruction. Approximately 0.5% of the cDNA was used as template in each quantitative real-time PCR (qRT-PCR) reaction with SYBR master mix (Applied biosystems).
Lentivirus production was carried out in 293T cells as described previously. THP-1 or L929 cells were infected with lentivirus containing UL37 or UL37 C819S mutant. After 36 h, THP-1 cells were selected with puromycin at 1 μg/ml and L929 cells were selected with puromycin at 5 μg/ml.

cGAS [3] = experiment: In vitro deamidation assay (cGAS); format: biochemical, mouse; settings: purified proteins
Description: The in vitro deamidation assay was performed as previously described. Briefly, 5 μg of purified MBP-mcGAS or MBP-mcGAS-DDEE mutant on amylose resin was incubated with 0.5 gig of purified FLAG-UL37 or FLAG-UL37C819S at 30° C. for 45 min in deamidation buffer (50 mM Tris-HCl [pH 7.5], 100 mM NaCl, and 5 mM MgCl2). Then the reaction was stopped by adding rehydration buffer and the eluted proteins were analyzed by two-dimensional gel electrophoresis.

cGAS [4] = target: T1, cGAS (Mus musculus, UniProt Q8C6L5); experiment: In vitro cGAMP activity assay; format: biochemical; settings: in vitro cGAMP reaction
T1 construct: Purified mcGAS(141-507) was deamidated by purified FLAG-UL37 in vitro; made in house; host or cells: E. coli BL21 (DE3)
Description: 1 μM of MBP-cGAS or mutant proteins was mixed with 100 μM ATP and 100 μM GTP and 10 μCi [α-P32]-ATP in reaction buffer (20 mM Tris-Cl [pH 7.5], 150 mM NaCl, 5 mM MgCl2, 1 mM dithiothreitol [DTT]). After 2 h of incubation at 37° C., 2 μl of reaction solution was spotted onto PEI-Cellulose thin layer chromatography plate (Sigma). Reaction products were resolved with running buffer (1 M (NH4)2SO4, 1.5 M KH2PO4, pH 3.8). The TLC plates were dried and scanned with Phosphoimager (Fuji).

HSV-1 = HSV-1 plaque assay in HEK293 cells stably expressing RIG-I wild-type or mutants; format: cell-based; settings: HEK293 stable cells, HSV-1 MOI=0.5
IFN-β and RANTES = experiment: Cytokine ELISA, HEK293 RIG-I stable cell lines infected with HSV-1; format: cell-based, human; settings: HSV-1-infected cells, supernatant at 16 hpi
Description: Commercial cytokine ELISA kits used in this study include: human IFN-β (PBL Assay Science) and human RANTES (R&D Systems). Cytokine levels in the supernatant from cultured cells were assessed according to manufacturer's instruction. Absorbance was determined with FLUOstar Omega (BMG Labtech.).

RIG-I [5] = experiment: Two-dimensional gel electrophoresis of RIG-I deamidation in cells; format: cell-based, human; settings: 2-DGE and immunoblotting
Description: Cells (1×10^6) were lysed in 150 μl rehydration buffer (8 M Urea, 2% CHAPS, 0.5% IPG Buffer, 0.002% bromophenol blue) by three pulses of sonication and whole cell lysates were centrifuged at 20,000 g for 15 min. Supernatants were loaded to IEF strips for focusing with a program comprising: 20 V, 10 h (rehydration); 100 V, 1 h; 500 V, 1 h; 1000 V, 1 h; 2000 V, 1 h; 4000 V, 1 h; 8000 V, 4 h. After IEF, strips were incubated with SDS equilibration buffer (50 mM Tris-HCl [pH8.8], 6 M urea, 30% glycerol, 2% SDS, 0.001% Bromophenol Blue) containing 10 mg/ml DTT for 15 min and then SDS equilibration buffer containing 2-iodoacetamide for 15 min. Strips were washed with SDS-PAGE buffer, resolved by SDS-PAGE, and analyzed by immunoblotting.

RIG-I [6] = experiment: Gel filtration of purified RIG-I (oligomerization); format: cell-based, human; settings: cells infected with HSV-1, 4 h
Description: Virus-infected HEK293T/Flag-RIG-I or HeLa/Flag-RIG-I stable cells were harvested and lysed in cold Triton X-100 buffer (20 mM Tris, pH 7.5, 150 mM NaCl, 1.5 mM MgCl2, 20 mM β-glycerophosphate, 1 mM sodium orthovanadate, 10% glycerol, 0.5 mM EGTA, 0.5% Triton X-100, 1 mM PMSF and 10 μg/ml leupeptin). Centrifuged supernatant was filtered and subjected to incubation with anti-Flag-conjugated agarose beads for 2 h at 4° C. Beads were then extensively washed and proteins were eluted with 3× Flag peptide at 0.2 mg/ml.
Gel filtration with superose 6 was performed as described previously. Briefly, eluted proteins (200-300 μl) were loaded to superose 6 column and subjected to gel filtration analysis with Buffer B (20 mM Tris-HCl, pH 7.6, 150 mM NaCl, 1 mM EDTA, 0.5 mM EGTA, 0.5% Triton X-100, 20 mM NaF, 20 mM β-glycerophosphate, 1 mM Na3VO4, 2.5 mM metabisulphite [sodium salt], 5 mM benzamidine). Elution was collected in 0.5 ml fractions and aliquots of fractions were analyzed by immunoblotting.

T1 sequence (Q8C6L5 141-507): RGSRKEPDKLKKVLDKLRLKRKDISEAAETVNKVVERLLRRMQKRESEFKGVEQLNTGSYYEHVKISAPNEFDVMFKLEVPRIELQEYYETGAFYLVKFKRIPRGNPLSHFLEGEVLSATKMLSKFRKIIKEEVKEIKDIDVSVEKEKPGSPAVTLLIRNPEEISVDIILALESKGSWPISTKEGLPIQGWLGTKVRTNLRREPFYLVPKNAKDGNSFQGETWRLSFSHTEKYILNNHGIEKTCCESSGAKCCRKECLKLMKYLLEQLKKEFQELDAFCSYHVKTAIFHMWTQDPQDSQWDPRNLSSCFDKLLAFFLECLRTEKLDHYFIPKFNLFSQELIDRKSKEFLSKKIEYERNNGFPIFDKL

Molecule | blockade of SeV-induced PRDIII promoter activation (PRDIII promoter) | intracellular cGAMP (cGAS [1]) | effect on expression of IFNB1, ISG56 and CXCL10 induced by HT-DNA (cGAS [2]) | cGAS deamidation in vitro (2DGE shift) (cGAS [3]) | effect of added UL37 on cGAS-mediated cGAMP production (cGAS [4]) | reduction of HSV-1 replication / titer (HSV-1) | IFN-β and RANTES in supernatant (IFN-β and RANTES) | charge shift of RIG-I (deamidation) upon UL37 expression or recombinant HSV-1 infection (RIG-I [5]) | size of RIG-I elution fractions (oligomerization) (RIG-I [6])
UL37C819S | greatly impaired blockade of PRDIII induction by SeV | ~85 ng per one million THP-1 cells | no detectable effect on IFNB1 and ISG56 expression | failed to do so | less, albeit still significant, inhibition of cGAMP production |  |  |  | 
RIG-I-QQ (protein) MTTEQRRSLQAFQDYIRKTLDPTYILSYMAPWFREEEVQYIQAEKNNKGPMEAATLFLKFLLELQEEGWFRGFLDALDHAGYSGLYEAIESWDFKKIEKLEEYRLLLKRLQPEFKTRIIPTDIISDLSECLINQECEEILQICSTKGMMAGAEKLVECLLRSDKENWPKTLKLALEKERNKFSELWIVEKGIKDVETEDLEDKMETSDIQIFYQEDPECQNLSENSCPPSEVSDTNLYSPFKPRNYQLELALPAMKGKNTIICAPTGCGKTFVSLLICEHHLKKFPQGQKGKVVFFANQIPVYEQQKSVFSKYFERHGYRVTGISGATAENVPVEQIVENNDIIILTPQILVNNLKKGTIPSLSIFTLMIFDECHNTSKQHPYNMIMFNYLDQKLGGSSGPLPQVIGLTASVGVGDAKNTDEALDYICKLCASLDASVIATVKHNLEELEQVVYKPQKFFRKVESRISDKFKYIIAQLMRDTESLAKRICKDLEQLSQIQNREFGTQKYEQWIVTVQKACMVFQMPDKDEESRICKALFLYTSHLRKYQDALIISEHARMKDALDYLKDFFSNVRAAGFEEIEQDLTQRFEEKLQELESVSRDPSNENPKLEDLCFILQEEYHLNPETITILFVKTRALVDALKNWIEGNPKLSFLKPGILTGRGKTNQNTGMTLPAQKCILDAFKASGDHNILIATSVADEGIDIAQCNLVILYEYVGNVIKMIQTRGRGRARGSKCFLLTSNAGVIEKEQINMYKEKMMNDSILRLQTWDEAVFREKILHIQTHEKFIRDSQEKPKPVPDKENKKLLCRKCKALACYTADVRVIEECHYTVLGDAFKECFVSRPHPKPKQFSSFEKRAKIFCARQNCSHDWGIHVKYKTFEIPVIKIESFVVEDIATGVQTLYSKWKDFHFEKIPFDPAEMSK |  |  |  |  |  | 75-90% | Increased IFN-β and RANTES expression | deamidation-resistant | 440-670 kDa
